Assay results as given in the supplement of paper PMC10065799, “High-throughput profiling of sequence recognition by tyrosine kinases and SH2 domains using bacterial peptide display” (eLife, 2023).

What follows are sequences tested on AncSZ (assay: phosphorylation enrichment, bacterial display (enrichment ratio); higher = better substrate or ligand; peptides without Tyr show the background).
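Note: 11-residue human phosphosite peptides and single-mutation variants displayed on the E. coli surface, counted by deep sequencing, each peptide's frequency after selection divided by its frequency in the unselected input library; frequency after pTyr selection over input frequency; kinase dosed for 20-30% of maximal phosphorylation in three min.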

Sequence | phosphorylation enrichment
TFRPPYYHRDC [HGD_Y333_N337D] | 1.17
HCFNSYTFPRL [PAK7_Y316_S312C_YF] | 1.94
AESPEYVHMYT [FAM111A_Y511] | 1.34
VVQGIYGFHHH [UFSP2_Y285_Y290H_YF] | 0.685
QKLPLYILENN [VPS13B_Y2774_S2773L] | 0.967
AWVARYIFKRL [LPCAT3_Y348] | 1.26
FLAVGYHQPHI [IDS_Y225_K227Q] | 0.559
IHETTYKSIMK [ACTA1_Y281_N282K] | 0.364
ATRKAYGQALA [TKT_Y321] | 0.468
KVGPGYLGSRG [RET_Y826_G830R] | 0.402
ELELLYPDRNS [NYX_Y284_L285P] | 1.17
MEYAKYGSLRG [RET_Y809_V804M] | 0.622
PLDGESFTLQI [TP53_Y327_Y327S] | 1.64
YYSSEYHYVGG [CTSC_Y345] | 6.21
CSRHFYQLTKL [AR_Y858_R856H] | 1.06
IDDNQYAYLKA [HNF4A_Y286_E285Q] | 0.993
NTQRPYYKGGG [TYROBP_Y111] | 0.516

Sequence | phosphorylation enrichment
QFNPEYVQQAS [LRRC7_Y1058_H1054Y_YF] | 1.79
DFDNLYFWDQD [ERBB2_Y1221_A1216D_YF] | 2.2
VAMDDYLKNVV [LRRK2_Y707_M712V] | 0.872
MYDKEYYSVHN [MET_Y1234] | 2.1
MKVPVYETPAG [PGM5_Y358] | 1.57
AHPIIYEIIEA [PYKtide_E_2014] | 1.93
RKETFYTLSCR [GUCY2C_Y681] | 1.32
LQRCKYSHMEP [TEX45_Y434] | 1.21
NDQANYLLNTD [ADA_Y290_S291L] | 0.987
EGDGVYTLNNK [HP_Y125_E130K] | 0.86
FSCLPYGRLAF [SLC52A2_Y305_YF] | 0.935
PVDVAYRRGFF [PLEC_Y2967_YF] | 0.909
QTLTDYDTRFF [CSNK2A3_Y131_I133T_YF] | 0.909
CTTIHYNFTCN [TP53_Y234_M237T_YF] | 0.797
RLRKFYLGKFL [KLB_Y906_YF] | 0.631
FISVGYVDDTQ [HLA-B_Y51] | 0.808

The sequences below were run against EPHB1 (UniProt P54762) in the same assay as above.
Sequence of EPHB1 (P54762 whole entry, looked up): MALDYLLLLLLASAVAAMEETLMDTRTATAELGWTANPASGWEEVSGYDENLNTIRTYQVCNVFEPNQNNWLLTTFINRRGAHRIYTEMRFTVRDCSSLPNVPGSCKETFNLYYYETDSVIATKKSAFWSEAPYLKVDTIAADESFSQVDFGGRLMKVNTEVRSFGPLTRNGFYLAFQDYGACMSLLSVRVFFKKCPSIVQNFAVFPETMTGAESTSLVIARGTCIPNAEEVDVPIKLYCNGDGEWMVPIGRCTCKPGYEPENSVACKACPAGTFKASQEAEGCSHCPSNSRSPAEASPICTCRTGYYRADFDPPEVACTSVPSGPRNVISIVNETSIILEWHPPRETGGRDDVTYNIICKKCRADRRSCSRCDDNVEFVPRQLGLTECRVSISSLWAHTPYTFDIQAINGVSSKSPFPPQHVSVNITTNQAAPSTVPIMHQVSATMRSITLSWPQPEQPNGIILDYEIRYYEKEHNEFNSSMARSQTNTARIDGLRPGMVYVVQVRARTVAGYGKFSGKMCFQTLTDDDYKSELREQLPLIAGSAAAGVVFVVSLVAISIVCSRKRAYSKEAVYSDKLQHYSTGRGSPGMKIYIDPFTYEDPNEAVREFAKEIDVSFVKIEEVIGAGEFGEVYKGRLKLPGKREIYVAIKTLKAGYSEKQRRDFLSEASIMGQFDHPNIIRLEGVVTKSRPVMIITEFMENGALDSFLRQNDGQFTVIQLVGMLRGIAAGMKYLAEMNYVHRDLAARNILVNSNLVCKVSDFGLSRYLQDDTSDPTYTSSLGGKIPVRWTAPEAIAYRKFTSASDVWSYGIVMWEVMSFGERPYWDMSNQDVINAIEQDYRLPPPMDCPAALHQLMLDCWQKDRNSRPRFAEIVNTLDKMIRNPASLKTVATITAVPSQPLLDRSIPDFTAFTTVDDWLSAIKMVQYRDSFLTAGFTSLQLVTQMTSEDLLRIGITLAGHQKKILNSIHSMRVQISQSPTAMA

Sequence | phosphorylation enrichment
TFRPPYYHRDC [HGD_Y333_N337D] | 0.834
HCFNSYTFPRL [PAK7_Y316_S312C_YF] | 0.752
AESPEYVHMYT [FAM111A_Y511] | 0.486
VVQGIYGFHHH [UFSP2_Y285_Y290H_YF] | 0.65
QKLPLYILENN [VPS13B_Y2774_S2773L] | 0.942
AWVARYIFKRL [LPCAT3_Y348] | 0.555
FLAVGYHQPHI [IDS_Y225_K227Q] | 0.448
IHETTYKSIMK [ACTA1_Y281_N282K] | 0.324
ATRKAYGQALA [TKT_Y321] | 0.31
KVGPGYLGSRG [RET_Y826_G830R] | 0.302
ELELLYPDRNS [NYX_Y284_L285P] | 0.556
MEYAKYGSLRG [RET_Y809_V804M] | 0.569
PLDGESFTLQI [TP53_Y327_Y327S] | 0.731
YYSSEYHYVGG [CTSC_Y345] | 15.5
CSRHFYQLTKL [AR_Y858_R856H] | 0.501
IDDNQYAYLKA [HNF4A_Y286_E285Q] | 0.558
NTQRPYYKGGG [TYROBP_Y111] | 0.331

Sequence | phosphorylation enrichment
QFNPEYVQQAS [LRRC7_Y1058_H1054Y_YF] | 1.02
DFDNLYFWDQD [ERBB2_Y1221_A1216D_YF] | 1.57
VAMDDYLKNVV [LRRK2_Y707_M712V] | 0.482
MYDKEYYSVHN [MET_Y1234] | 0.965
MKVPVYETPAG [PGM5_Y358] | 11.7
AHPIIYEIIEA [PYKtide_E_2014] | 22.3
RKETFYTLSCR [GUCY2C_Y681] | 1.17
LQRCKYSHMEP [TEX45_Y434] | 0.513
NDQANYLLNTD [ADA_Y290_S291L] | 0.558
EGDGVYTLNNK [HP_Y125_E130K] | 0.601
FSCLPYGRLAF [SLC52A2_Y305_YF] | 0.352
PVDVAYRRGFF [PLEC_Y2967_YF] | 0.456
QTLTDYDTRFF [CSNK2A3_Y131_I133T_YF] | 0.506
CTTIHYNFTCN [TP53_Y234_M237T_YF] | 0.448
RLRKFYLGKFL [KLB_Y906_YF] | 0.393
FISVGYVDDTQ [HLA-B_Y51] | 0.507

Each sequence was assayed against EPHB2 (UniProt P29323) in the same assay as above.
Sequence of EPHB2 (P29323 whole entry, looked up): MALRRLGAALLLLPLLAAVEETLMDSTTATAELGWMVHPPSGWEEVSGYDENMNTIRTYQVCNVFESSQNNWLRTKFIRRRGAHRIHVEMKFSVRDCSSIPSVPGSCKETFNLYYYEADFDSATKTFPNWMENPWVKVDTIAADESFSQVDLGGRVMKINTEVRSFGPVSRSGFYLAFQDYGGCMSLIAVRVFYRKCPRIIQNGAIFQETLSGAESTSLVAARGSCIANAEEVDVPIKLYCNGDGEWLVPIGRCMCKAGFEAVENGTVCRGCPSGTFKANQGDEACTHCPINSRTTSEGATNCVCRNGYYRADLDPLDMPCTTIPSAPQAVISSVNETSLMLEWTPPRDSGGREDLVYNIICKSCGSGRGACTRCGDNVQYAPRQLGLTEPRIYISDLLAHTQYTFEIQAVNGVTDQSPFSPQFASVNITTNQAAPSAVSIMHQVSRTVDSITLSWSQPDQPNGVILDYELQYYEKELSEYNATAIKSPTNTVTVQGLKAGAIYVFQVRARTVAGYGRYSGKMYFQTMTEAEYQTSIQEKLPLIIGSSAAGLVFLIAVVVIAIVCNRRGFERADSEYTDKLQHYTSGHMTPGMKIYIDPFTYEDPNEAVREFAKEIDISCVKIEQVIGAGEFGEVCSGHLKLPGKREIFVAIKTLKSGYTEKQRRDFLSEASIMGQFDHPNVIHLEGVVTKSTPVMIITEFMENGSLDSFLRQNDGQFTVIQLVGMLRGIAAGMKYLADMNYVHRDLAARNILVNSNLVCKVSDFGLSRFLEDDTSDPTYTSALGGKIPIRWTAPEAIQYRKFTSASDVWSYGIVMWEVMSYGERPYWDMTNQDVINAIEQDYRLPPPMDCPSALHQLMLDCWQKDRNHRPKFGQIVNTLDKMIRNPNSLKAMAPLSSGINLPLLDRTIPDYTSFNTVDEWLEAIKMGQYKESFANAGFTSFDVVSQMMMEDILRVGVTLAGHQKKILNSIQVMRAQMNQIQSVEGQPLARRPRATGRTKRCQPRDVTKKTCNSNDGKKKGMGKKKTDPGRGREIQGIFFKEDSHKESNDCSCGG

Sequence | phosphorylation enrichment
TFRPPYYHRDC [HGD_Y333_N337D] | 0.734
HCFNSYTFPRL [PAK7_Y316_S312C_YF] | 0.743
AESPEYVHMYT [FAM111A_Y511] | 0.491
VVQGIYGFHHH [UFSP2_Y285_Y290H_YF] | 1.19
QKLPLYILENN [VPS13B_Y2774_S2773L] | 0.607
AWVARYIFKRL [LPCAT3_Y348] | 0.472
FLAVGYHQPHI [IDS_Y225_K227Q] | 0.415
IHETTYKSIMK [ACTA1_Y281_N282K] | 0.33
ATRKAYGQALA [TKT_Y321] | 0.348
KVGPGYLGSRG [RET_Y826_G830R] | 0.345
ELELLYPDRNS [NYX_Y284_L285P] | 0.544
MEYAKYGSLRG [RET_Y809_V804M] | 0.465
PLDGESFTLQI [TP53_Y327_Y327S] | 0.93
YYSSEYHYVGG [CTSC_Y345] | 17.6
CSRHFYQLTKL [AR_Y858_R856H] | 0.576
IDDNQYAYLKA [HNF4A_Y286_E285Q] | 0.667
NTQRPYYKGGG [TYROBP_Y111] | 0.383

Sequence | phosphorylation enrichment
QFNPEYVQQAS [LRRC7_Y1058_H1054Y_YF] | 0.778
DFDNLYFWDQD [ERBB2_Y1221_A1216D_YF] | 1.07
VAMDDYLKNVV [LRRK2_Y707_M712V] | 0.59
MYDKEYYSVHN [MET_Y1234] | 1.13
MKVPVYETPAG [PGM5_Y358] | 18.2
AHPIIYEIIEA [PYKtide_E_2014] | 20.4
RKETFYTLSCR [GUCY2C_Y681] | 1.27
LQRCKYSHMEP [TEX45_Y434] | 0.876
NDQANYLLNTD [ADA_Y290_S291L] | 0.56
EGDGVYTLNNK [HP_Y125_E130K] | 0.378
FSCLPYGRLAF [SLC52A2_Y305_YF] | 0.55
PVDVAYRRGFF [PLEC_Y2967_YF] | 0.44
QTLTDYDTRFF [CSNK2A3_Y131_I133T_YF] | 0.823
CTTIHYNFTCN [TP53_Y234_M237T_YF] | 0.6
RLRKFYLGKFL [KLB_Y906_YF] | 0.462
FISVGYVDDTQ [HLA-B_Y51] | 0.593

Each sequence was assayed against FGFR1 (UniProt P11362) in the same assay as above.
Sequence of FGFR1 (P11362 whole entry, looked up): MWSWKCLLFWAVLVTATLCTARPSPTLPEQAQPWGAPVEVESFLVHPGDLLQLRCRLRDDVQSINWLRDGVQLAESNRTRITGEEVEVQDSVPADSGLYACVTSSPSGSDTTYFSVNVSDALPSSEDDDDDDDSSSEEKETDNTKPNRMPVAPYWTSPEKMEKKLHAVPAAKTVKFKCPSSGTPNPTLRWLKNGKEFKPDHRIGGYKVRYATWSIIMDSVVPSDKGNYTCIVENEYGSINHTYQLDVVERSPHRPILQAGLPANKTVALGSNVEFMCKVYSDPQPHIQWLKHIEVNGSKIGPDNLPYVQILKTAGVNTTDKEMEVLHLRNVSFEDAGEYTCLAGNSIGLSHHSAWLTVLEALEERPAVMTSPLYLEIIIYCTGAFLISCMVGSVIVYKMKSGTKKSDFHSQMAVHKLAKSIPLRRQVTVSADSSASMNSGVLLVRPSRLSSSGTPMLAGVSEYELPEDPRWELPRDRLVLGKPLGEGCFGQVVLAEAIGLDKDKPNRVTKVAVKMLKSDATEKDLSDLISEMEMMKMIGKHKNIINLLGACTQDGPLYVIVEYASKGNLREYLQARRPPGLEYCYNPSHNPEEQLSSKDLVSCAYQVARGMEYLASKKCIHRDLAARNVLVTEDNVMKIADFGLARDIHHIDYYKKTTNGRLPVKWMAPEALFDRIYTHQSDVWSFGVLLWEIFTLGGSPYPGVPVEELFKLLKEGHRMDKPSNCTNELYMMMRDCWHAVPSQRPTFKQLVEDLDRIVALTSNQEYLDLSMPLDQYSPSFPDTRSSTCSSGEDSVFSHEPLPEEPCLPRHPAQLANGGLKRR

Sequence | phosphorylation enrichment
TFRPPYYHRDC [HGD_Y333_N337D] | 0.874
HCFNSYTFPRL [PAK7_Y316_S312C_YF] | 0.713
AESPEYVHMYT [FAM111A_Y511] | 1.92
VVQGIYGFHHH [UFSP2_Y285_Y290H_YF] | 0.523
QKLPLYILENN [VPS13B_Y2774_S2773L] | 0.81
AWVARYIFKRL [LPCAT3_Y348] | 0.351
FLAVGYHQPHI [IDS_Y225_K227Q] | 0.391
IHETTYKSIMK [ACTA1_Y281_N282K] | 0.373
ATRKAYGQALA [TKT_Y321] | 0.391
KVGPGYLGSRG [RET_Y826_G830R] | 0.318
ELELLYPDRNS [NYX_Y284_L285P] | 0.776
MEYAKYGSLRG [RET_Y809_V804M] | 0.461
PLDGESFTLQI [TP53_Y327_Y327S] | 0.634
YYSSEYHYVGG [CTSC_Y345] | 17.4
CSRHFYQLTKL [AR_Y858_R856H] | 0.705
IDDNQYAYLKA [HNF4A_Y286_E285Q] | 2.93
NTQRPYYKGGG [TYROBP_Y111] | 0.511

Sequence | phosphorylation enrichment
QFNPEYVQQAS [LRRC7_Y1058_H1054Y_YF] | 0.741
DFDNLYFWDQD [ERBB2_Y1221_A1216D_YF] | 7.58
VAMDDYLKNVV [LRRK2_Y707_M712V] | 0.468
MYDKEYYSVHN [MET_Y1234] | 7.14
MKVPVYETPAG [PGM5_Y358] | 0.492
AHPIIYEIIEA [PYKtide_E_2014] | 2.02
RKETFYTLSCR [GUCY2C_Y681] | 1.49
LQRCKYSHMEP [TEX45_Y434] | 0.663
NDQANYLLNTD [ADA_Y290_S291L] | 0.432
EGDGVYTLNNK [HP_Y125_E130K] | 0.48
FSCLPYGRLAF [SLC52A2_Y305_YF] | 0.71
PVDVAYRRGFF [PLEC_Y2967_YF] | 0.504
QTLTDYDTRFF [CSNK2A3_Y131_I133T_YF] | 0.666
CTTIHYNFTCN [TP53_Y234_M237T_YF] | 0.496
RLRKFYLGKFL [KLB_Y906_YF] | 0.669
FISVGYVDDTQ [HLA-B_Y51] | 0.556
